B1: 抗PD-1/TGF-β-1 (bispecific antibody, human IgG4 S228P, kappa)
heavy: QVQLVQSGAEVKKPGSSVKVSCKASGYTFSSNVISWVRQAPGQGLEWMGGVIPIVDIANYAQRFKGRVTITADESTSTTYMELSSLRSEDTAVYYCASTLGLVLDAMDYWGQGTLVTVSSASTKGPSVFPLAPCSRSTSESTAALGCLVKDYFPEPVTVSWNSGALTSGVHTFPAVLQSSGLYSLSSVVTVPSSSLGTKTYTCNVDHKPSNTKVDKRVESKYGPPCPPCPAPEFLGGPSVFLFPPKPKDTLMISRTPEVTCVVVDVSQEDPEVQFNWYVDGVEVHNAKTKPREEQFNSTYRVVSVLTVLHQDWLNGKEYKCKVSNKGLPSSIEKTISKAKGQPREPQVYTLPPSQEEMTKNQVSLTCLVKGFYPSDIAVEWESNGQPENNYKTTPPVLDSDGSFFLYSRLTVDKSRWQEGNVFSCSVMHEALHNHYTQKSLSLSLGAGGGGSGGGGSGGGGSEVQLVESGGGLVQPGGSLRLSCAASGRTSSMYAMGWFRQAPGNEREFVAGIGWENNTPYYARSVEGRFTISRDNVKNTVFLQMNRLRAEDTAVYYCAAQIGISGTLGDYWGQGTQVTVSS
light: ETVLTQSPGTLSLSPGERATLSCRASQSLGSSYLAWYQQKPGQAPRLLIYGASSRAPGIPDRFSGSGSGTDFTLTISRLEPEDFAVYYCQQYADSPITFGQGTRLEIKRTVAAPSVFIFPPSDEQLKSGTASVVCLLNNFYPREAKVQWKVDNALQSGNSQESVTEQDSKDSTYSLSSTLTLSKADYEKHKVYACEVTHQGLSSPVTKSFNRGEC
notes: also called antiPD-1/TGF-β-1
B2: 抗PD-1/PSCK9-2 (bispecific antibody, human IgG4 S228P, kappa)
heavy: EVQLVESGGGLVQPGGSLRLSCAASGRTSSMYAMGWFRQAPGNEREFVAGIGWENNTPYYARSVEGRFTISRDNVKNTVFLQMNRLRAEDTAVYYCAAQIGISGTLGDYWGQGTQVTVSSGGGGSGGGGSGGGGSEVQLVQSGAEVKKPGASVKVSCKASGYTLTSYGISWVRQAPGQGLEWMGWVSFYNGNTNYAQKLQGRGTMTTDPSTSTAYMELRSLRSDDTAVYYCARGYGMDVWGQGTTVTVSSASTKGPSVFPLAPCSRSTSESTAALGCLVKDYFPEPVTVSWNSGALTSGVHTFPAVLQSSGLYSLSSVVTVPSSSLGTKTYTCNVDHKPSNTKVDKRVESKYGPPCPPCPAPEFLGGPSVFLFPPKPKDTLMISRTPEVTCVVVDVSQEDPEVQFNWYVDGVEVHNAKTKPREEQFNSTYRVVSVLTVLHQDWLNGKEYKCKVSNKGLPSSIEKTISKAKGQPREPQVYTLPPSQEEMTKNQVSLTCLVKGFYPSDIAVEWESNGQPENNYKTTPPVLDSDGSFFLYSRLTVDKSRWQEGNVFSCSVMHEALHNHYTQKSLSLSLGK
light: ESALTQPASVSGSPGQSITISCTGTSSDVGGYNSVSWYQQHPGKAPKLMIYEVSNRPSGVSNRFSGSKSGNTASLTISGLQAEDEADYYCNSYTSTSMVFGGGTKLTVLRTVAAPSVFIFPPSDEQLKSGTASVVCLLNNFYPREAKVQWKVDNALQSGNSQESVTEQDSKDSTYSLSSTLTLSKADYEKHKVYACEVTHQGLSSPVTKSFNRGEC
notes: also called antiPD-1/PSCK9-2; 抗PD-1/PCSK9-2
B3: 抗PD-1/IL-8-2 (bispecific antibody, human IgG4 S228P, kappa)
heavy: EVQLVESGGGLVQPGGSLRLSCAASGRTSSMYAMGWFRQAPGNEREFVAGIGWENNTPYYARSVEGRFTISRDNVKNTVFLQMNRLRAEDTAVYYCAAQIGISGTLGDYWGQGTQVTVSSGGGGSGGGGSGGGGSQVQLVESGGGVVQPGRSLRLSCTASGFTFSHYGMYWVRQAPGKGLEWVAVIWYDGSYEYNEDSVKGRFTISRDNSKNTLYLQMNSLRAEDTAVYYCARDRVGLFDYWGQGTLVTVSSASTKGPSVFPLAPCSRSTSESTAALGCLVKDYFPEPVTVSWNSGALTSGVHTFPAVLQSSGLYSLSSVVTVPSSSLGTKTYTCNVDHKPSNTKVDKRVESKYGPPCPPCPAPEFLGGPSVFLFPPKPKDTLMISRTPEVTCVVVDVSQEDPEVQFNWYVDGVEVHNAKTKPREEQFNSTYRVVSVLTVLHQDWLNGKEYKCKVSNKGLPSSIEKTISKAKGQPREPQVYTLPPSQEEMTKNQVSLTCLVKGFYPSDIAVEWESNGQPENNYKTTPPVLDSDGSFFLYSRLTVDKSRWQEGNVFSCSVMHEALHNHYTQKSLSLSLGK
light: EIVLTQSPGTLSLSPGERATLSCRASQSISSSYLAWYQQKPGQAPRLLIYGPSSRATGIPDRFSGSGSGTDFTLTISRLEPEDFAVYYCQQYAGSLTFGPGTKVDIKRTVAAPSVFIFPPSDEQLKSGTASVVCLLNNFYPREAKVQWKVDNALQSGNSQESVTEQDSKDSTYSLSSTLTLSKADYEKHKVYACEVTHQGLSSPVTKSFNRGEC
B4: 抗PD-1/IL-8-1 (bispecific antibody, human IgG4 S228P, kappa)
heavy: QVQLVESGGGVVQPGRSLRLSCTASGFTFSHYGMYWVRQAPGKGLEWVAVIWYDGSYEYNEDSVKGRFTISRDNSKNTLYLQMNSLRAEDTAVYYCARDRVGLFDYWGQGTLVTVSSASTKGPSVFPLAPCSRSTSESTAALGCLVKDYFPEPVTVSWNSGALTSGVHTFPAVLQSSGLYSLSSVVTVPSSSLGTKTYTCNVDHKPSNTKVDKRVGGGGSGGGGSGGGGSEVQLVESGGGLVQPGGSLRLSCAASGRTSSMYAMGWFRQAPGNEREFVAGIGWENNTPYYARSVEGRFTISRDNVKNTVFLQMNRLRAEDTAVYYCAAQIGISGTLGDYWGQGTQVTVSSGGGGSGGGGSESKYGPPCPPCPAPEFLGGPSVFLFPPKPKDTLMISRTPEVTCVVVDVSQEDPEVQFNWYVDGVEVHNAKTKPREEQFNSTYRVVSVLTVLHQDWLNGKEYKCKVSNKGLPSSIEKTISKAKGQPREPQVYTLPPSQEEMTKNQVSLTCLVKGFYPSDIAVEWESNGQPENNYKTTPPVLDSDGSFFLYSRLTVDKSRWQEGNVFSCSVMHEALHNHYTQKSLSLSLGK
light: B3 light
notes: also called antiPD-1/IL-8-1
B5: 抗PD-1/TGF-β-2 (bispecific antibody, human IgG4 S228P, kappa)
heavy: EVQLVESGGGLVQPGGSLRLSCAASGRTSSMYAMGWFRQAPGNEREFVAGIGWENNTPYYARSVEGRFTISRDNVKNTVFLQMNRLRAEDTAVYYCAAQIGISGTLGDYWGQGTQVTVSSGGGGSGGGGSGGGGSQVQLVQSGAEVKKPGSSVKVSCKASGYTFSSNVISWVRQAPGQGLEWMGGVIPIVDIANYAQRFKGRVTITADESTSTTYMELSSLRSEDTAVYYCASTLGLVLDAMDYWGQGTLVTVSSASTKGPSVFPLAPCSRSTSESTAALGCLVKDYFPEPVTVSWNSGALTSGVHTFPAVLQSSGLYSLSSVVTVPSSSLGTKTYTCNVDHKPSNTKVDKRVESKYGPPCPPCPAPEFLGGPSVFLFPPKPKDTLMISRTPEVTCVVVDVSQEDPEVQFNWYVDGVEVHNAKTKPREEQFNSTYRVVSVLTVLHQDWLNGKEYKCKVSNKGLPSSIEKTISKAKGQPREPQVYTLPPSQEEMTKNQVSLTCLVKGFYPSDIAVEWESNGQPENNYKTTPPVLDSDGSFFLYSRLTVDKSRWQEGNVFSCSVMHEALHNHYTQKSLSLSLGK
light: B1 light
notes: also called antiPD-1/TGF-β-2
B6: 抗PD-1/TGF-β-3 (bispecific antibody, human IgG4 S228P, kappa)
heavy: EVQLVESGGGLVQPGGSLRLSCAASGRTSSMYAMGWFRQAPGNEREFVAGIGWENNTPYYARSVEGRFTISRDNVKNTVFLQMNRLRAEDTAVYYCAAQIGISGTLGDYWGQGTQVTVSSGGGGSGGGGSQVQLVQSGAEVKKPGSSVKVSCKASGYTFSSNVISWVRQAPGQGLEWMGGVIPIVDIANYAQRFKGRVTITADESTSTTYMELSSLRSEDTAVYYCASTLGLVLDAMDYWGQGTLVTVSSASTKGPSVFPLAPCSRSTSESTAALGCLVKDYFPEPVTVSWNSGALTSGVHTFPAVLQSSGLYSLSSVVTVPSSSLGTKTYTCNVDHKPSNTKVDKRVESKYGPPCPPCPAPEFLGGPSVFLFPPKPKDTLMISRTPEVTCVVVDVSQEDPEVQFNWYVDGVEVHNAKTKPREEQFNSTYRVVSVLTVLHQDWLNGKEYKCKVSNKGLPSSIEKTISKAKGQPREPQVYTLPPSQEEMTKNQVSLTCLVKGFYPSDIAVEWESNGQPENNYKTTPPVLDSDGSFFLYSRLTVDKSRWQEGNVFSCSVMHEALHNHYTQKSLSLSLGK
light: B1 light
notes: also called antiPD-1/TGF-β-3

What was measured:
[1] = target: PD-1 on Jurkat/PD-1细胞(Promega) (UniProt Q15116 25-288, limits assumed); assay: cell-based or functional assay
[2] = target: T1, 人PD-1蛋白(北京百普赛斯，货号PD1-H5221) (human, UniProt Q15116 25-167); assay: binding ELISA on coated PD-1 protein
T1 construct: Bought recombinant protein coated on the ELISA plate; also called PD-1抗原

Binder	EC50, PD-1报告基因法 [1] [µg/mL]	EC50 [2] [µg/mL]	binding result [2]
B1	1.7	0.17	–
B2	4	0.0641	–
B3	1.3	–	–
B4	–	–	binds
B5	–	–	binds
B6	–	–	binds

— patent CN115558029A (LILING BIOLOGICAL PHARMACEUTICAL SUZHOU CO LTD, dated 2023)
